Laboratory results as given in a protein production outcome set (Wang et al. 2014).

Assay: label from the status in PepcDB records

Q: For “MQDSSSQHEPLWDRFGDLTVWKRGDQRAPHKPLLILYALGRLAQGDRWLRFSDIEEDLTDLLIEFGPPRQSHHPEYPFWHLRSDGVWVVPEADVLEMRQSASNPPKTELREKEARGGFSDDIHQAFRNDSELRRGIARLLLSSHFPTSLHEDIATAVSLDLEGAASERRDPEFRTQVLQAYQYRCAICGFNLQLGMSGTPIGVEAAHIKWKQARGPDEISNGIALCALHHKMLDKGALHVTEDLRLFVSEAVHGSQPHLSRLQDRHGNRIHTPQRETYYPNGEVVTWHVNEVFRGPPRV”, which protein production is on record?
A: failed

Q: For “MEIKRFGRIREVIPLPPLTEIQVESYRRALQADVPPEKRENVGIQAAFRETFPIEEEDKGKGGLVLDFLEYRLGEPPFPQDECREKDLTYQAPLYARLQLIHKDTGLIKEDEVFLGHIPLMTEDGSFIINGADRVIVSQIHRSPGVYFTPDPARPGRYIASIIPLPKRGPWIDLEVEPNGVVSMKVNKRKFPLVLLLRVLGYDQETLARELGAYGELVQGLMDESVFAMRPEEALIRLFTLLRPGDPPKRDKAVAYVYGLIADPRRYDLGEAGRYKAEEKLGIRLSGRTLARFEDGEFKDEVFLPTLRYLFALTAGVPGHEVDDIDHLGNRRIRTVGELMTDQFRVGLARLARGVRERMLMGSEDSLTPAKLVNSRPLEAAIREFFSRSQLSQFKDETNPLSSLRHKRRISALGPGGLTRERAGFDVRDVHRTHYGRICPVETPEGANIGLITSLAAYARVDELGFIRTPYRRVVGGVVTDEVVYMTATEEDRYTIAQANTPLEGNRIAAERVVARRKGEPVIVSPEEVEFMDVSPKQVFSVNTNLIPFLEHDDANRALMGSNMQTQAVPLIRAQAPVVMTGLEERVVRDSLAALYAEEDGEVAKVDGNRIVVRYEDGRLVEYPLRRFYRSNQGTALDQRPRVVVGQRVRKGDLLADGPASENGFLALGQNVLVAIMPFDGYNFEDAIVISEELLKRDFYTSIHIERYEIEARDTKLGPERITRDIPHLSEAALRDLDEEGVVRIGAEVKPGDILVGRTSFKGESEPTPEERLLRSIFGEKARDVKDTSLRVPPGEGGIVVRTVRLRRGDPGVELKPGVREVVRVYVAQKRKLQVGDKLANRHGNKGVVAKILPVEDMPHLPDGTPVDVILNPLGVPSRMNLGQILETHLGLAGYFLGQRYISPIFDGAKEPEIKELLAQAFEVYFGKRKGEGFGVDKREVEVLRRAEKLGLVTPGKTPEEQLKELFLQGKVVLYDGRTGEPIEGPIVVGQMFIMKLYHMVEDKMHARSTGPYSLITQQPLGGKAQFGGQRFGEMEVWALEAYGAAHTLQEMLTLKSDDIEGRNAAYEAIIKGEDVPEPSVPESFRVLVKELQALALDVQTLDEKDNPVDIFEGLASKR”, which protein production is on record?
A: not failed

Q: Which protein production does the source give for “MSYSTFALCHWARDRQRGRKTVADMVHRMTQATARVIGLEDRGELAVGKRADINVIDLAQLALRPPQVCHDLPAGGRRLIQRATGYSLTMLAGEIVLRDDEPLEHHHHHH” here?
A: not failed

Q: Which protein production does the source give for “MIGLSKSRGALSMENQKMPEYETIRAAVAGEKWAVEKVVDCYKDEIDRLSTVAVRQPDGSTKQEINEDMRQSITKKLIEALPQFPLEEMEKGNVR” here?
A: failed

Q: For “MISTMYSEETSERSSFPSKRHLEDRTENREEHSKRLRPTSFRDQKVTIPQGWLDCPRFGQHIGLIIPSKVPLSESYNDCVPSGKRYNFKQWLTKIGLVIDLTNTTRYYHPNTELRQNRIEYVKIRCSGRDSVPDNVSVNTFVHEVTQFENHNLSEKYLLVHCTHGHNRTGFMIVHYLMRSRPMMSVTQALKIFSDARPPGIYKPDYIDALYRFYHEVKPGSVICPPTPEWKRSEEAKFDDDDNALSYREVQGNNQEENVQLSNDDVLGDEIPYDQEVSYQNSINHMLNISMQFPGSHPLSLGREALQLLRQRYYYATWKADGTRYMMLLTRDGCYLVNREYRFRRVQMRFPCEYEPSDYKVHHYTLLDGEMVVDTIKEGETQRHVRRYLVYDLVAINGQFVAERPFSERWNILERELIKPRNDEKKVRDHWYRYDKEPFGVRIKAFCLLSAVEKKVFNELIPLLSHESDGLIFQGWDNPYVFGPNKDLLKWKFVETLDFLFDMDKYGRQMLFLQERGRMKLMEGFAVEFRGDGWDNDLASYCGKIVECSWDKEKKVWVSLRIRVDKSKPNGIGTGRSVIKCIEDDLTKEVLLKEIKEIILLPMYVERIENDTKEAARRKHGNRKG”, which protein production is on record?
A: failed

Q: Which protein production does the source give for “MVARDTTAPQVKIVNPVTGNVSGSNVPISVNASDDSGASGITYALYIDGVLKATGKGSTLGYNWNIRNVAAGAHTVQVVAKDAAGNSASSSVSVTVVKLEHHHHHH” here?
A: failed

Q: Which protein production does the source give for “SAKTDKLAQFLDSGIYESDEFNWFFLDTVRITNRSYTRFKVSPSAYYSRFFNSKQLNQHSSESNPKKRKRKQKNSSFHLPSVGEQASNLRHQEARLFLSKAHESFLKEIELLSLTKGLSDDNDDDDSSLLNKCCDDEVSFIELGGVWQAPFYEITLSFNLHCDNEGESCNEQRVFQVFNNLVVNEIGEEVEAEFSNRRYIMPRNSCFYMSDLHHIRNLVPEKISHYHIGRRCNSLIDVIYAAKSEEGYNLIVIDPPWENASAHQKSKYPTLPNQYFLSLPIKQLAHAEGALVALWVTNREKLLSFVEKELFPAWGIKYVATMYWLKVKPDGTLICDLDLVHHKPYEYLLLGYHFTELAGSEKRSDFKLLDKNQIIMSIPGDFSRKPPIGDILLKHTPGSQPARCLELFAREMAAGWTSWGNEPLHFQDSRYFLKV” here?
A: failed

Q: With “MFAMPTFELDALTTLALALILLGVGAQLKKRSRWLTQLCVPAPVIGGFGFALIVWLLRDQQLLAIKLDTAIQTPLMVAFFTTVGLGGSLGLLRRGGKILFVYLGACWSLALLQNLVGVGAAKALGIDPLLGIMAGAVSLEGGFGAAAAFGPIAENLGAVGATTAALASATFGMVAGGLLGSPLARWLIERNRLQIQADQVSTLQHLESAAQGSVAPLDAPTLLRLLTCILLIMVLGFWIGSALNEHLGIVLPSYVGAMFVAIILRNLNDRARIIDIPDSAVSTLGDVCLGVFLTMAMMSLKFWELEQLGLPLLVILVVQVLVMVLLCVFLLFRLFGGNYDAAVLCAGFMGHGLGATPNAVANMGAICDHYKVFSYKAFIIVPLCGAVLIDIVAIPLITWFINAFA” as the sequence, how does the protein production read?
A: failed

Q: Which protein production does the source give for “MQIPHGELRTLTYHSNALKSERQMYVWTPPGYSESSKPLPVLYFYHGFGDTGASAVVQGRIPQMMDNLLAEKKIEPMLVVIPDTETDVPGIIPEEYPPQERRKVFYPRNALAADRELIHDIIPAIGKRFNVRQDANGRALAGLSQGGYQALVSGMSHLDHFGWLATFSGVTTETVPNMAVAAQLERPEQINQQLKNLTVVIGETDNITGKDIAGLKTMLEQKNIRFDYTHYPNLGHEMDVWRPAYSEFVQKLFKLEHHHHHH” here?
A: not failed

Q: With “MRGAESLVTLNHKILRPCRKLLIRITKSCPRRHNRHLKLKKASSSSSTASGNKVTKVVALFFLSFHKKKQKKEKMKRLNELRSFSHAVNDQKKKAPKQESSKKVFPSRLTMSWLGQGKGNNNNTQEVPQEHDARRDSTSAFIP” as the sequence, how does the protein production read?
A: failed

Q: For “MSSSEIQTKNSEVQVKEMVAHKWDLASETFDTHAGHGIQTQKERDAWKRAFLKVFPGKSLKILDVGCGTGELSLLFAEMGHEVAGIDISGQMLKIAKAKAEALGADITFREGDAENPPFDTSSYDIVFSRHLLWTLPNPKVAVENWNRILRKNGKVVIVDGVWDSGTLGSRARKNAGALLTLLLERKDPRKGHSDYSDELKAQLPHFGGAPLEKVNEYLSNSGFGNIQIFDLKEVRDAQKEKMPLGERVVRSYQYYLICGRK”, which protein production is on record?
A: failed

Q: For “MTILENIRGPRDLKALSEAELGELSDEIRDFLVHAVARTGGHLGPNLGVVELTVALHRVFESPDDRILWDTGHQSYVHKLLTGRQDFSKLRSKGGLSGYPSREESAHDVIENSHASTVLGWADGLAKARQVQGERSHVVAVIGDGALTGGMAWEALNNIAAARDRPLIIVVNDNERSYAPTIGGLANHLATLRTTDGYERALAWGKDVLQRTPVVGHTVYEALHGAKKGFKDAFAPQGLFEDLGLKYLGPIDGHDIGAVESALRRAKRFHGPVLVHCLTEKGRGYEPALRDEEDHFHTVGVMDPLTCEPLGPAGGPSWTSVFGEEIVRIGEERADVVAITAAMLHPVGLAPFAERFPDRVWDVGIAEQHAAVSAAGLATGGLHPVVAVYATFLNRAFDQLLMDVALHRCGVTFVLDRAGVTGVDGASHNGMWDMSVLQVVPGLRIAAPRDADQLRTQLREAVAVDDAPTLLRFPKESVGPAVPAVDRIGGLDVLHTADRSEVLLVAVGVMAPVCLGAAELLEARGIGCTVVDPRWVKPVDPALAPLAARHRLVAVVEDNSRAAGVGSAVALALGDAEVDVPVRRFGIPEQFLAHAKRAEVLADIGLTPVDVAGRIAASLALAEPAGDRAGGPAVEQPGDGRMSGDGRIVMPAQGEN”, which protein production is on record?
A: failed
